Drawing on PMC3152347, this text covers binding result and stoichiometry N for 5 molecules.

Like-named read-outs stand apart in the source and are kept apart here.

Usually stoichiometry N stands for a count of units in the complex or per binding partner.

The target of series [1] is T1, His-HSF1 (human, UniProt Q00613 1-529). In words: EMSA. For orientation: In EMSA bound probe runs differently from free probe, usually more slowly.
In series [2] the target is T2, endogenous HSF1 of CEM-GFP cells (human (endogenous in CEM-GFP)), Q00613.
T2 chain: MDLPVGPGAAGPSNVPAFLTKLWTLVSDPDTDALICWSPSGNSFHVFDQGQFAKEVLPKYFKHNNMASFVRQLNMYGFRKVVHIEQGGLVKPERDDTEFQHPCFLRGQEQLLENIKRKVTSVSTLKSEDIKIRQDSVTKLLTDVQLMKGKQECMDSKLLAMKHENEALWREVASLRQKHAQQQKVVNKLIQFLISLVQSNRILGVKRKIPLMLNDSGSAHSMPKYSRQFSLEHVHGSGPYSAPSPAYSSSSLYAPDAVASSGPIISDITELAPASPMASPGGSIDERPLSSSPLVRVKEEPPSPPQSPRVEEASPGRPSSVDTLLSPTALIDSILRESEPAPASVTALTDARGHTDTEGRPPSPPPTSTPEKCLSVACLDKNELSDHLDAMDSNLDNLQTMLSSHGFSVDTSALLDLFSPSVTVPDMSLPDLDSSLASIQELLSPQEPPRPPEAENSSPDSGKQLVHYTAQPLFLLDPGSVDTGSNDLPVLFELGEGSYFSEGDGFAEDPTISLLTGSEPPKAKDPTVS
The series can be described thus: cross-linking. The note with it: remark: other sources report otherwise.

Series [3] concerns the target T1, His-HSF1. The series can be described thus: EMSA. This is another data set of the same source.

B1: P2 (NF-kB and 3rd Sp1 site, LTR -91 to -69) (dsDNA)
DNA 1: GGGACTTTCCAGGGAGGTGTGGC
DNA 2: GCCACACCTCCCTGGAAAGTCCC
As for B1, the binding result with His-HSF1 [1] is given as “binds”.

B2: endogenous HSF1 of CEM-GFP cells, Q00613 1-529 (natural protein)
chain: MDLPVGPGAAGPSNVPAFLTKLWTLVSDPDTDALICWSPSGNSFHVFDQGQFAKEVLPKYFKHNNMASFVRQLNMYGFRKVVHIEQGGLVKPERDDTEFQHPCFLRGQEQLLENIKRKVTSVSTLKSEDIKIRQDSVTKLLTDVQLMKGKQECMDSKLLAMKHENEALWREVASLRQKHAQQQKVVNKLIQFLISLVQSNRILGVKRKIPLMLNDSGSAHSMPKYSRQFSLEHVHGSGPYSAPSPAYSSSSLYAPDAVASSGPIISDITELAPASPMASPGGSIDERPLSSSPLVRVKEEPPSPPQSPRVEEASPGRPSSVDTLLSPTALIDSILRESEPAPASVTALTDARGHTDTEGRPPSPPPTSTPEKCLSVACLDKNELSDHLDAMDSNLDNLQTMLSSHGFSVDTSALLDLFSPSVTVPDMSLPDLDSSLASIQELLSPQEPPRPPEAENSSPDSGKQLVHYTAQPLFLLDPGSVDTGSNDLPVLFELGEGSYFSEGDGFAEDPTISLLTGSEPPKAKDPTVS
For B2, the stoichiometry N in series [2] was 3.

B3: P1 (both NF-kB sites of LTR) (dsDNA)
DNA 1: GGGACTTTCCGCTGGGGACTTTCC
DNA 2: GGAAAGTCCCCAGCGGAAAGTCCC
Take B3: the binding result in the series with His-HSF1 [3] is listed as “no binding”.

B4: P3 (1st and 2nd Sp1 site) (dsDNA)
DNA 1: TGGGCGGGACTGGGGAGTGGCG
DNA 2: CGCCACTCCCCAGTCCCGCCCA
As for B4, the binding result in the series with His-HSF1 [3] is recorded as “no binding”.

B5: P4 (2nd and 3rd Sp1 site) (dsDNA)
DNA 1: GGGAGGTGTGGCCTGGGCGGGAC
DNA 2: GTCCCGCCCAGGCCACACCTCCC
For the molecule B5, the binding result with His-HSF1 [3] is “no binding”.
